Source: paper doi:10.1101/2020.04.15.042515 (bioRxiv, 2020)

Target: T1, Smith-Magenis syndrome chromosome region, candidate 8 (SMCR8), wild type (human, UniProt Q8TEV9 1-937)
T1 sequence: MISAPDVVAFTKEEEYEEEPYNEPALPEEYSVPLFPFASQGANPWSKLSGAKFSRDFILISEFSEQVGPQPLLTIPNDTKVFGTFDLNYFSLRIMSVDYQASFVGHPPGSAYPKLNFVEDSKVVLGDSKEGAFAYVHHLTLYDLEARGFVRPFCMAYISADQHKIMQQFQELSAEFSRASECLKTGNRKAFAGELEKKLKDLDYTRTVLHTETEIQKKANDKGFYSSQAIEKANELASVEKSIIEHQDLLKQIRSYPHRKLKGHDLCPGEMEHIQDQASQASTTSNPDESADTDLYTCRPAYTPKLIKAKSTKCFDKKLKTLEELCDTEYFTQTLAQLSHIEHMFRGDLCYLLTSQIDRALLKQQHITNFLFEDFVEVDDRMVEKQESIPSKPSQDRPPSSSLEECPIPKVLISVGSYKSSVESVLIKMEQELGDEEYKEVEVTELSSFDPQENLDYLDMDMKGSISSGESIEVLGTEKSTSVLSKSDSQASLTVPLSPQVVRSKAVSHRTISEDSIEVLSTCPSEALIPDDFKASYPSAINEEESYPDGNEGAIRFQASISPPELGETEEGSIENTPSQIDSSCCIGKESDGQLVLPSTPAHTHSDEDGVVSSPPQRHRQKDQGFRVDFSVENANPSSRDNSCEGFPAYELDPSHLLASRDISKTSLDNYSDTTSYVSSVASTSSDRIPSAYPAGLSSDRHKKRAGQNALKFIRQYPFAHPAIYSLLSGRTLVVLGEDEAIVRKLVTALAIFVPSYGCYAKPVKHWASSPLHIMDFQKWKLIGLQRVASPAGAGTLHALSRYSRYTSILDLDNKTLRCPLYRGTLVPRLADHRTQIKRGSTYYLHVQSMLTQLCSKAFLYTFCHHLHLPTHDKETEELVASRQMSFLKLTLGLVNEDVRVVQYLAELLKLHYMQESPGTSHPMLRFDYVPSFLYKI
Assay: cryo-EM structure

B1: C9orf72, wild type, GST tag removed by TEV (in purified SCARF and L-SCARF) (natural protein)
chain: MSTLCPPPSPAVAKTEIALSGKSPLLAATFAYWDNILGPRVRHIWAPKTEQVLLSDGEITFLANHTLNGEILRNAESGAIDVKFFVLSEKGVIIVSLIFDGNWNGDRSTYGLSIILPQTELSFYLPLHRVCVDRLTHIIRKGRIWMHKERQENVQKIILEGTERMEDQGQSIIPMLTGEVIPVMELLSSMKSHSVPEEIDIADTVLNDDDIGDSCHEGFLLNAISSHLQTCGCSVVVGSSAEKVNKIVRTLCLFLTPAERKCSRLCEAESSFKYESGLFVQGLLKDSTGSFVLPFRQVMYAPYPTTHIDVDVNTVKQMPPCHEHIYNQRRYMRSELTAFWRATSEEDMAQDTIIYTDESFTPDLNIFQDVLHRDTLVKAFLDQVFQLKPGLSLRSTFLAQFLLVLHRKALTLIKYIEDDTQKGKKPFKSLRNLKIDLDLTAEGDLNIIMALAEKIKPGLHSFIFGRPFYTSVQERDVLMTF
- binding result: binds

B2: WD repeat-containing protein 41 (WDR41), wild type, without a tag (natural protein)
chain: MLRWLIGGGREPQGLAEKSPLQTIGEEQTQNPYTELLVLKAHHDIVRFLVQLDDYRFASAGDDGIVVVWNAQTGEKLLELNGHTQKITAIITFPSLESCEEKNQLILTASADRTVIVWDGDTTRQVQRISCFQSTVKCLTVLQRLDVWLSGGNDLCVWNRKLDLLCKTSHLSDTGISALVEIPKNCVVAAVGKELIIFRLVAPTEGSLEWDILEVKRLLDHQDNILSLINVNDLSFVTGSHVGELIIWDALDWTMQAYERNFWDPSPQLDTQQEIKLCQKSNDISIHHFTCDEENVFAAVGRGLYVYSLQMKRVIACQKTAHDSNVLHVARLPNRQLISCSEDGSVRIWELREKQQLAAEPVPTGFFNMWGFGRVSKQASQPVKKQQENATSCSLELIGDLIGHSSSVEMFLYFEDHGLVTCSADHLIILWKNGERESGLRSLRLFQKLEENGDLYLAV
- binding result: binds
